Key:
[1] = pig, in vivo, sc
Excerpt: Determination of Disappearance Half-life, T50%, from the Injection Site after Subcutaneous Injection of an Insulin Derivative in Pigs.

[2] = pH 7.3
Experimental: The lipophilicity of the insulin derivatives relative to human insulin, k″rel, was measured on a LiChrosorb RP18 (5 μm, 250×4 mm) HPLC column by isocratic elution at 40° C. using mixtures of A) 0.1 M sodium phosphate buffer, pH 7.3, containing 10% acetonitrile, and B) 50% acetonitrile in water as eluents. The elution was monitored by following the UV absorption of the eluate at 214 nm. Void time, t0, was found by injecting 0.1 mM sodium nitrate. Retention time for human insulin, thuman, was adjusted to at least 2t0 by varying the ratio between the A and B solutions. k′rel=(tderivative−t0)/(thuman−t0).

porcine albumin = porcine albumin (Sus scrofa, UniProt P08835); experiment: Binding to porcine albumin, in vitro assay; settings: relative to the reference compound EXA
Experimental: The binding to porcine albumin was determined in an in vitro assay. The values given in Table 1 under the heading “Albumin binding” are relative to the reference compound EXA.

Sequence of porcine albumin (P08835 25-607): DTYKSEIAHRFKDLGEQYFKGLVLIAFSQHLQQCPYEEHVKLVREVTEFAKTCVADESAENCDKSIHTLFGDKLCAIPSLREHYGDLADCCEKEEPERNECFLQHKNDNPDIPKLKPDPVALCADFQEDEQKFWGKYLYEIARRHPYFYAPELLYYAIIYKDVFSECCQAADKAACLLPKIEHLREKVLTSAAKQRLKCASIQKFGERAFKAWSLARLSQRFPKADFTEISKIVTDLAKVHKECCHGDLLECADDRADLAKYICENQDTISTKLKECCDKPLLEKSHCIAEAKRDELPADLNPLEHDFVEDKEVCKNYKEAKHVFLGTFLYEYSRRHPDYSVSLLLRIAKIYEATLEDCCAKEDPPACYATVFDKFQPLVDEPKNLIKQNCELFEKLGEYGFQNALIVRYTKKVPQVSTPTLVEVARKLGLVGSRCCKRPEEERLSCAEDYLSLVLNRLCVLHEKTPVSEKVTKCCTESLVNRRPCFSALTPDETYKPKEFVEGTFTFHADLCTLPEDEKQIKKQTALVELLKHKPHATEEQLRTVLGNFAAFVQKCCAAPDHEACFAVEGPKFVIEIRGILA

Row | Substance | T50% [1] [h] | Lipophilicity [2] | Albumin binding (porcine albumin)
1 | N^εB29-(CO—(CH2)14—COOH) des(B30) Human Insulin [EX2] | 10 | 2.3 | 5
2 | N^εB29-(CO—(CH2)16—COOH) des(B30) Human Insulin [EX4] | 17.1 | 7.2 | 36
3 | N^εB29-(CO—(CH2)18—COOH) des(B30) Human Insulin [EX3] | 18 | 17 | 51
4 | N^εB29-(CO—(CH)12—COOH) des(B30) human insulin [EX1] | 5 | 1.4 | 0.7
5 | N^εB29-hexadecanoyl desB30 insulin [EXB, reference compound] | 12 | 346 | 0.9
6 | N^εB29-tetradecanoyl desB30 insulin [EXA, reference compound] | 14 | 113 | 1

Source: patent US6451970B1, “Peptide derivatives” (Novo Nordisk A/S, priority 1996, dated 2002)
